Substitutions are numbered along the chain they refer to.

In experiment [1] the target is T1, recombinant human biotinylated mesothelin extracellular domain with C-terminal Avi-Tag (human, site selectively biotinylated in vitro with BirA enzyme at the C-terminal Avi-Tag).
T1 construct: Produced in HEK293F cells; as printed it includes a His tag and the Avi-Tag; Immobilised on a streptavidin sensor chip for SPR; also called human MSLN ECD; human mesothelin ECD
T1 chain: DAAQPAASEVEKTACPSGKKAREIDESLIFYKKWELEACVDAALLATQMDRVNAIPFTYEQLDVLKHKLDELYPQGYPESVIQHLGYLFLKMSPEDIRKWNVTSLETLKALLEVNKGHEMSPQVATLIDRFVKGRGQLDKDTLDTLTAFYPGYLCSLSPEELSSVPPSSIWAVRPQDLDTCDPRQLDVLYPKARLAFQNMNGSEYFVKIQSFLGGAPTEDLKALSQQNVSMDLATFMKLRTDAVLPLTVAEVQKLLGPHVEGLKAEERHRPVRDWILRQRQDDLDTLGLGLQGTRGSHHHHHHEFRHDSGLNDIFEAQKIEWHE
Kind of experiment: SPR, Biacore T200; biotinylated mesothelin ECD on streptavidin chip, scFv injected; steady state affinity model.
Experimental: (§1) Binding affinity of purified scFvs was measured on a Biacore T200 system. Briefly, recombinant human biotinylated mesothelin ECD was immobilized on a streptavidin (SA) sensor chip surface at a density of 150 RU. Purified scFv was injected over the chip under constant flow rate at three-fold serial dilutions. Association and dissociation rates of the protein complex were monitored for 270 seconds and 400 seconds, respectively. Double referencing was performed against a blank immobilized flow cell and a buffer blank. Affinity was determined with a Langmuir 1:1 binding model when possible, for those scFVs where accurate fitting was not possible due to fast on and off rates, the steady state model was used.

Experiment [2] concerns the target T1, recombinant human biotinylated …. Briefly: SPR, Biacore T200; biotinylated mesothelin ECD on streptavidin chip, scFv injected; 1:1 binding model.
Experimental: as §1
Experiment [3] has as its target T2, Glycosylation Deficient Mesothelin (296-588; N388Q, N496Q, N523Q) (human).
T2 construct: It already carries N388Q, N496Q and N523Q; also called hMSLN296-588; human mesothelin(296-588)
T2 chain: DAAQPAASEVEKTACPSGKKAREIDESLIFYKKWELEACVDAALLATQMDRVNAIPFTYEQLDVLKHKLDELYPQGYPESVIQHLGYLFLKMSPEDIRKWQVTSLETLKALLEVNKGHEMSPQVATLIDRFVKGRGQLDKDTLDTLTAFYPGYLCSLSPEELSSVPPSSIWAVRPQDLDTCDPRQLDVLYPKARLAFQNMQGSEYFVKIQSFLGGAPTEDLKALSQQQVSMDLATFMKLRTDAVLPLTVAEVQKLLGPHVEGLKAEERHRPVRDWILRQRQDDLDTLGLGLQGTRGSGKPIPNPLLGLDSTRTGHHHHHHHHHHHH
Briefly: Hydrogen-deuterium exchange mass spectrometry: difference in deuterium uptake of the co-expressed complex against unbound mesothelin, peptides 456-586.
Experimental: For hMSLN₂₉₆₋₅₈₈ deuterium labeling experiments in the absence of antibody, 400 pmol of hMSLN₂₉₆₋₅₈₈, volume of 6.9 was diluted using 100 μl of the deuterium buffer for 15 minutes at 4° C. The labeling reaction was then quenched with 100 μl of chilled quench buffer at 2° C. for three minutes followed by injected onto the LC-MS system for automated pepsin digestion and peptide analysis.
The labeling reaction was then quenched with 100 μl of chilled quench buffer at 2° C. for three minutes followed by injected onto the LC-MS system for automated pepsin digestion and peptide analysis. […] The labeling reaction was then quenched with 100 μl of chilled quench buffer at 2° C. for three minutes, and then injected onto the LC-MS system for automated pepsin digestion and peptide analysis.
All deuterium exchange experiments were quenched using 0.5 M TCEP and 3 M urea (pH=2.6). After quenching, the exchanged antigen was subjected to on-line pepsin digestion using a Poroszyme Immobilized Pepsin column (2.1×30 mm) at 12° C. followed by trapping on a Waters Vanguard HSS T3 trapping column.

B1: M12 scFv (human anti-mesothelin scFv, soluble, His-tagged) (scFv)
scFv: QVQLVQSGAEVKKPGASVKVSCKASGYTFTGYYMHWVRQAPGQGLEWMGRINPNSGGTNYAQKFQGRVTMTTDTSTSTAYMELRSLRSDDTAVYYCARTTTSYAFDIWGQGTMVTVSSGGGGSGGGGSGGGGSGGGGSDIQLTQSPSTLSASVGDRVTITCRASQSISTWLAWYQQKPGKAPNLLIYKASTLESGVPSRFSGSGSGTEFTLTISSLQPDDFATYYCQQYNTYSPYTFGQGTKLEIKGSHHHHHHHH
notes: also called DE12-14RD
On to B1, for which the dissociation constant (Kd) in experiment [1] stood at 307 nM.

B2: M5 scFv (human anti-mesothelin scFv, soluble, His-tagged) (scFv)
scFv: QVQLVQSGAEVEKPGASVKVSCKASGYTFTDYYMHWVRQAPGQGLEWMGWINPNSGGTNYAQKFQGRVTMTRDTSISTAYMELSRLRSDDTAVYYCASGWDFDYWGQGTLVTVSSGGGGSGGGGSGGGGSGGGGSDIVMTQSPSSLSASVGDRVTITCRASQSIRYYLSWYQQKPGKAPKLLIYTASILQNGVPSRFSGSGSGTDFTLTISSLQPEDFATYYCLQTYTTPDFGPGTKVEIKGSHHHHHHHH
notes: also called scFv M5; XP31-20LC
Turning to B2, in experiment [2], the Kd is 26.9 nM, the off-rate (koff) was 0.00113 s⁻¹ and the kon was found to be 42000 M⁻¹ s⁻¹. For the same molecule, the binding result in experiment [3] is given as “binds”.

B3: M11 scFv (human anti-mesothelin scFv, soluble, His-tagged) (scFv)
scFv: B2 scFv with V5Q, E12K, D31G, K63N, S84R, V138R
notes: also called NE10-19WD
Consider B3, for which the Kd in experiment [1] came out at 64.7 nM.

B4: M23 scFv (human anti-mesothelin scFv, soluble, His-tagged) (scFv)
scFv: QVQLQQSGAEVKKPGASVKVSCKASGYTFTNYYMHWVRQAPGQGLEWMGIINPSGGYTTYAQKFQGRLTMTRDTSTSTVYMELSSLRSEDTAVYYCARIRSCGGDCYYFDNWGQGTLVTVSSGGGGSGGGGSGGGGSGGGGSDIQLTQSPSTLSASVGDRVTITCRASENVNIWLAWYQQKPGKAPKLLIYKSSSLASGVPSRFSGSGSGAEFTLTISSLQPDDFATYYCQQYQSYPLTFGGGTKVDIKGSHHHHHHHH
notes: also called XH66-84HE
Consider B4, for which the Kd in experiment [1] is 114 nM.

B5: M16 scFv (human anti-mesothelin scFv, soluble, His-tagged) (scFv)
scFv: EVQLVESGGGLVQPGRSLRLSCAASGFTFDDYAMHWVRQAPGKGLEWVSGISWNSGSTGYADSVKGRFTISRDNAKNSLYLQMNSLRAEDTALYYCAKDSSSWYGGGSAFDIWGQGTMVTVSSGGGGSGGGGSGGGGSSSELTQEPAVSVALGQTVRITCQGDSLRSYYASWYQQKPGQAPVLVIFGRSRRPSGIPDRFSGSSSGNTASLIITGAQAEDEADYYCNSRDNTANHYVFGTGTKLTVLGSHHHHHHHH
notes: also called XS87-99RD
For the molecule B5, in experiment [2], the dissociation constant Kd amounted to 22.7 nM, the koff amounted to 0.00395 s⁻¹ and the association rate constant (kon) was found to be 174000 M⁻¹ s⁻¹.

B6: M17 scFv (human anti-mesothelin scFv, soluble, His-tagged) (scFv)
scFv: EVQLVESGGGLVQPGRSLRLSCAASGFTFDDYAMHWVRQAPGKGLEWVSGISWNSGSTGYADSVKGRFTISRDNAKNSLYLQMNSLRAEDTALYYCAKDSSSWYGGGSAFDIWGQGTMVTVSSGGGGSGGGGSGGGGSSSELTQDPAVSVALGQTVRITCQGDSLRSYYASWYQQKPGQAPVLVIYGKNNRPSGIPDRFSGSSSGNTASLTITGAQAEDEADYYCNSRGSSGNHYVFGTGTKVTVLGSHHHHHHHH
notes: also called NS89-94MD
For B6, in experiment [2], the dissociation constant Kd is 27.8 nM, the koff is 0.0145 s⁻¹ and the on-rate constant (kon) turned out to be 522000 M⁻¹ s⁻¹.

B7: M21 scFv (human anti-mesothelin scFv, soluble, His-tagged) (scFv)
scFv: QVQLVQSWAEVKKPGASVKVSCKASGYTFTSYYMHWVRQAPGQGLEWMGIINPSGGSTSYAQKFQGRVTMTRDTSTSTVYMELSNLRSEDTAVYYCARSPRVTTGYFDYWGQGTLVTVSSGGGGSGGGGSGGGGSGGGGSDIQLTQSPSTLSASVGDRVTITCRASQSISSWLAWYQQKPGKAPKLLIYKASSLESGVPSRFSGSGSGTEFTLTISSLQPDDFATYYCQQYSSYPLTFGGGTRLEIKGSHHHHHHHH
notes: also called MM21; ZS95-03QD
For B7, the dissociation constant (Kd) in experiment [1] is 110 nM.

B8: M14 scFv (human anti-mesothelin scFv, soluble, His-tagged) (scFv)
scFv: QVQLVQSGAEVRAPGASVKISCKASGFTFRGYYIHWVRQAPGQGLEWMGIINPSGGSRAYAQKFQGRVTMTRDTSTSTVYMELSSLRSDDTAMYYCARTASCGGDCYYLDYWGQGTLVTVSSGGGGSGGGGSGGGGSGGGGSDIQMTQSPPTLSASVGDRVTITCRASENVNIWLAWYQQKPGKAPKLLIYKSSSLASGVPSRFSGSGSGAEFTLTISSLQPDDFATYYCQQYQSYPLTFGGGTKVDIKGSHHHHHHHH
notes: also called BS83-95ID
For B8, in experiment [2], the Kd is 0.9 nM, the off-rate (koff) is 0.00251 s⁻¹ and the kon stood at 2.75e+06 M⁻¹ s⁻¹.

The record behind these values is patent US20160311917A1 (Novartis, published 2016).
